The assay concerns the target SAM complex (Sorting and Assembly Machinery complex) from Myceliophthora thermophila: Sam50, Sam35 and Sam37 (Myceliophthora thermophila). As to the kind of experiment: cryo-EM structure; SAM complex in detergent GDN (0.02%), 20 mM HEPES pH 8.0, 150 mM NaCl; monomer and three dimer conformations, 3.0-3.9 Å; the authors call the dimers non-physiological.

The term stoichiometry N denotes the number of molecules, sites or subunits per partner or assembly.

Regarding “SAM complex (Sorting and Assembly Machinery complex) from Myceliophthora thermophila: Sam50, Sam35 and Sam37”, the stoichiometry N was 2.

The values above are taken from paper PMC7335169.
